Test results: patent US20220403031A1
Blank lines part the entries; values can stand above or below the binder they belong to.

Columns and labels:
[1] = target: 4-1BB.his (Homo sapiens (Human)) (UniProt Q07011); experiment: non-specific binding ELISA; antigen coated at 2 ug/mL, antibody at 10 ug/ml
[2] = target: HER3.his (Homo sapiens (Human)) (UniProt P21860); experiment: as above
OX40.his = experiment: as above
[3] = target: PD-1.his (Homo sapiens (Human)) (UniProt Q15116); experiment: as above
[4] = target: human PD-L1 on CHO-K1 cells (W315-CHO-K1.hPro1.C11) (human) (UniProt Q9NZQ7); experiment: FACS affinity on human PD-L1 cells, quantitative beads; parameters: Bmax: unit not given here
Sequence of human PD-L1 on CHO-K1 cells (W315-CHO-K1.hPro1.C11) (human) (Q9NZQ7 19-290): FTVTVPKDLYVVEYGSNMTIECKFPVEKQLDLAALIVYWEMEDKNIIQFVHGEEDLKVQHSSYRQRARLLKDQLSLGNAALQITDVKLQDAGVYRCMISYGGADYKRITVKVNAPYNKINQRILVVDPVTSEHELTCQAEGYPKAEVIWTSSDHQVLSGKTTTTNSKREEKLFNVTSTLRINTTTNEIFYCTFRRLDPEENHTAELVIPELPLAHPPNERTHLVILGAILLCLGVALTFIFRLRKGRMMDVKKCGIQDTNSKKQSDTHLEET

Sequence of PD-1.his (Homo sapiens (Human)) (Q15116 25-170 limits assumed): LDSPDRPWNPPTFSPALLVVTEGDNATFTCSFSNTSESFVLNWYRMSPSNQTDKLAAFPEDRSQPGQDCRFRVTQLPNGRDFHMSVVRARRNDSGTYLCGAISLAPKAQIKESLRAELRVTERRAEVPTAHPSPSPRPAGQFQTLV
Sequence of OX40.his (P43489 29-214): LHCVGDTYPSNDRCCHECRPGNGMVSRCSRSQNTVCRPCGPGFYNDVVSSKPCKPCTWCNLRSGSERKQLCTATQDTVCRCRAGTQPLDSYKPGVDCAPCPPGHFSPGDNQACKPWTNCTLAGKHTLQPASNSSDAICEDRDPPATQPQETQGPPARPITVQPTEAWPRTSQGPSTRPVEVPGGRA
Sequence of 4-1BB.his (Homo sapiens (Human)) (Q07011 24-186 limits assumed): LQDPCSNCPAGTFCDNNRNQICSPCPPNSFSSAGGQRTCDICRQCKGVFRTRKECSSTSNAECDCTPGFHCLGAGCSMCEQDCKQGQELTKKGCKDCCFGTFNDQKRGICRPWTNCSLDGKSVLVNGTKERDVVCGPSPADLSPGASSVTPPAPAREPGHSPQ

Absorbance at 450 nm [1]: 0.07
Absorbance at 450 nm [2]: 0.07
Absorbance at 450 nm (OX40.his): 0.06
Absorbance at 450 nm [3]: 0.06
B1: AP3R2-1A3-z12-hIgG4 (Fc fusion, not shown: a dimerising Fc or GST)
chain: EVQLVESGGGLVQPGGSLRLSCAASGHFSNLAVNWFRQAPGKERELVAGILWSGGSTFYADSVKGRFTISRGNAENMLYLQMNSLRAEDTAVYYCNTGTNWGQGTLVTVSS

Bmax [4]: 2.8e-10
Kd [4]: 0.24 nM
B2: BMK9.Fc(IgG4) (Benchmark antibody 9, variable region of KN035 conjugated with human IgG4 constant region) (Fc fusion, INN chains, looked up)
VH: QVQLVESGGGLVQPGGSLRLSCAASGKMSSRRCMAWFRQAPGKERERVAKLLTTSGSTYLADSVKGRFTISRDNSKNTVYLQMNSLRAEDTAVYYCAADSFEDPTCTLVTSSGAFQYWGQGTLVTVSS
modifications: VHH-Fc IgG4
